The Kd is the constant that tells how readily two partners part at equilibrium.

Read-outs that look alike come from different tables or passages of the source.

The target of one assay is full-length human p97 (human, UniProt P55072 1-806, biotin (site not stated)). Description: SPR; competition: as for p47-UBX but with full-length p47 on immobilised p97 (Figure S7). The settings on record: both partners purified. On the technique in general: SPR reads the build-up and loss of mass on a sensor chip optically.
In a further assay the target is full-length p47 (human, UniProt Q9UNZ2). The description is as above. The settings on record: both partners purified.
Another assay concerns the target T1, p37-UBX domain (Homo sapiens).
T1 chain: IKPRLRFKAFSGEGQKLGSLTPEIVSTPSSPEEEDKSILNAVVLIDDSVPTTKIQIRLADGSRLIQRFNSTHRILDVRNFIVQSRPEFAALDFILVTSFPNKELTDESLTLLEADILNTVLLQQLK
Description: BLI; selectivity of the scFvs against the p97-binding domains of other adaptor proteins (NPL4-UBXL, FAF1-UBX, p37-UBX) beside p47-UBX; set-up not told in the main text. The settings on record: both partners purified. (In BLI a coated tip is dipped into the sample, and binding shifts an interference pattern.)

The target in assay [1] is T2, p47-UBX domain (Homo sapiens, biotin (site not stated) where anchored on the BLI sensor tip).
T2 chain: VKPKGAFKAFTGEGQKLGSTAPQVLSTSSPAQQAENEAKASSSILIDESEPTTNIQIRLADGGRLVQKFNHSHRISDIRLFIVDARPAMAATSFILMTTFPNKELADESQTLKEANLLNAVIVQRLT
Put plainly: BLI; biotinylated p47-UBX anchored on the sensor tip; increasing amounts of each scFv; dose-response profiles. The settings on record: both partners purified.

The target of assay [2] is T3, C-terminal Halo-tagged p47-UBX domain (Homo sapiens).
T3 chain: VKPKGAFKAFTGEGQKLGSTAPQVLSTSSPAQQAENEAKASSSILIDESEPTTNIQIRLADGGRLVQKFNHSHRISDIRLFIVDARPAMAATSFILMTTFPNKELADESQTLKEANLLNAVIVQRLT
Description: FRET or BRET; NanoBRET in p47-knockout U2OS cells: Nanoluciferase-p97-N donor, p47-UBX-HaloTag acceptor, co-transfected with antibody-fragment or p47-FLAG plasmids; compared with scFv-RNase and scFab-RNase controls. The settings on record: partners not purified. (In general: BRET reads energy transfer from a luciferase to a nearby fluorophore.)

The target of a further assay is p47 (endogenous) (human (endogenous in U2OS), UniProt Q9UNZ2). Description: co-IP; co-IP of p47 from lysates of U2OS cells transfected with plasmids for HA-tagged antibody fragments; p47-containing complexes captured and blotted. The settings on record: partners not purified.
In a further assay the target is p97 (endogenous) (human (endogenous in U2OS), UniProt P55072). Put plainly: co-IP; co-IP of p97 from U2OS cells expressing scFv-A06 (Figure S10). The settings on record: partners not purified.
Assay [3] addresses T2, p47-UBX domain. Description: SPR; competition: biotinylated full-length p97 on a streptavidin chip; mixture of increasing concentrations of scFv and a fixed concentration of p47-UBX flowed over; with 100 uM ATP or 100 uM ADP. The settings on record: both partners purified.
Assay [4] has as its target T2, p47-UBX domain.

Sequence of full-length human p97 (P55072 whole entry): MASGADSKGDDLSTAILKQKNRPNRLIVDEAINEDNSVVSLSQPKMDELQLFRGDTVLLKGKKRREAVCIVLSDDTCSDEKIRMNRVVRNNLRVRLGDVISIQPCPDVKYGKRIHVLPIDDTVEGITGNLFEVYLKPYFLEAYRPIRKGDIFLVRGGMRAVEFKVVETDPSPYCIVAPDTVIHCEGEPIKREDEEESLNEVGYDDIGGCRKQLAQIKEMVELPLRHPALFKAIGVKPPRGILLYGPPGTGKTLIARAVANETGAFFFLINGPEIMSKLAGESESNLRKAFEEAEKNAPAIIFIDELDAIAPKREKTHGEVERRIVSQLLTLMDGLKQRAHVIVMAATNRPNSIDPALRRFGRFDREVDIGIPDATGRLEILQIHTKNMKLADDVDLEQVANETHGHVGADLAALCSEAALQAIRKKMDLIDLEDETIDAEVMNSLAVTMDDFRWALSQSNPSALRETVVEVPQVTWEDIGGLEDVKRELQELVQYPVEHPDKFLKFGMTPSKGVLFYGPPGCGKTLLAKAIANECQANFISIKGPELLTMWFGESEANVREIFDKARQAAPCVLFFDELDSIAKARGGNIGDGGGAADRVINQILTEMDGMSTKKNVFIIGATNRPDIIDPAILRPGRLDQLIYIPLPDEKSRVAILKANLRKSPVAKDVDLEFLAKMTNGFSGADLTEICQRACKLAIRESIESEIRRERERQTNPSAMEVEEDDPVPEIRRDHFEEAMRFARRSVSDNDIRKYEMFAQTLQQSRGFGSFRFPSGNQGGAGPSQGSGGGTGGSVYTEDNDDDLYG
Sequence of p97 (endogenous) (P55072 whole entry, the tested form may be a part): as the sequence (P55072 whole entry) above

B1: full-length p47 (natural protein, human, UniProt Q9UNZ2 1-370, looked up)
chain: MAAERQEALREFVAVTGAEEDRARFFLESAGWDLQIALASFYEDGGDEDIVTISQATPSSVSRGTAPSDNRVTSFRDLIHDQDEDEEEEEGQRFYAGGSERSGQQIVGPPRKKSPNELVDDLFKGAKEHGAVAVERVTKSPGETSKPRPFAGGGYRLGAAPEEESAYVAGEKRQHSSQDVHVVLKLWKSGFSLDNGELRSYQDPSNAQFLESIRRGEVPAELRRLAHGGQVNLDMEDHRDEDFVKPKGAFKAFTGEGQKLGSTAPQVLSTSSPAQQAENEAKASSSILIDESEPTTNIQIRLADGGRLVQKFNHSHRISDIRLFIVDARPAMAATSFILMTTFPNKELADESQTLKEANLLNAVIVQRLT
For B1, in the assay with full-length human p97, the binding result is “binds”.

B2: scFv-A06 (scFv, V domains shown)
VH: QVQLVESGGGLVQPGGSLRLSCAASGFNISSYSMHWVRQAPGKGLEWVASISSSYGSTYYADSVKGRFTISADTSKNTAYLQMNSLRAEDTAVYYCARSDWYYGDAWGVPYYAFDYWGQGTLVTVSS
VL: DIQMTQSPSSLSASVGDRVTITCRASQSVGSALAWYQQKPGKAPKLLIYSASSLYSGVPSRFSGSRSGTDFTLTISSLQPEDFATYYCQQSWFLITFGQGTKVEIK
Consider B2, for which the binding result with full-length p47 is “binds”; with p37-UBX domain it was “no binding”. Moreover, in the assay with p47-UBX domain [1], the equilibrium dissociation constant (Kd) is around 3 nM.

B3: scFv-A06 with C-terminal HA tag, expressed in cells (scFv, V domains shown)
VH: QVQLVESGGGLVQPGGSLRLSCAASGFNISSYSMHWVRQAPGKGLEWVASISSSYGSTYYADSVKGRFTISADTSKNTAYLQMNSLRAEDTAVYYCARSDWYYGDAWGVPYYAFDYWGQGTLVTVSS
VL: DIQMTQSPSSLSASVGDRVTITCRASQSVGSALAWYQQKPGKAPKLLIYSASSLYSGVPSRFSGSRSGTDFTLTISSLQPEDFATYYCQQSWFLITFGQGTKVEIK
Consider B3, for which the “reduction of the BRET ratio of the p97-N/p47-UBX pair” value in assay [2] is around 15%. The binding result with p47 (endogenous) and in the assay with p97 (endogenous) was “binds” in each case.

B4: scFv-B01 (scFv, V domains shown)
VH: QVQLVESGGGLVQPGGSLRLSCAASGFNISSYYMHWVRQAPGKGLEWVASIYPSYSSTSYADSVKGRFTISADTSKNTAYLQMNSLRAEDTAVYYCARSSDYDRYWYWSYDAFDYWGQGTLVTVSS
VL: DIQMTQSPSSLSASVGDRVTITCRASQSVGSALAWYQQKPGKAPKLLIYSASSLYSGVPSRFSGSRSGTDFTLTISSLQPEDFATYYCQQSWDLFTFGQGTKVEIK
For the molecule B4, the binding result with full-length p47 and with p47-UBX domain [3] was “binds” throughout.

B5: scFab-NLS A06 with C-terminal HA tag, expressed in cells (Fab, V domains shown)
VH: EVQLVESGGGLVQPGGSLRLSCAASGFNISSYSMHWVRQAPGKGLEWVASISSSYGSTYYADSVKGRFTISADTSKNTAYLQMNSLRAEDTAVYYCARSDWYYGDAWGVPYYAFDYWGQGTLVTVSS
VL: DIQMTQSPSSLSASVGDRVTITCRASQSVGSALAWYQQKPGKAPKLLIYSASSLYSGVPSRFSGSRSGTDFTLTISSLQPEDFATYYCQQSWFLITFGQGTKVEIK
For B5, the binding result with p47 (endogenous) is “binds”.

B6: scFab-A06 with C-terminal HA tag, expressed in cells (Fab, V domains shown)
VH: EVQLVESGGGLVQPGGSLRLSCAASGFNISSYSMHWVRQAPGKGLEWVASISSSYGSTYYADSVKGRFTISADTSKNTAYLQMNSLRAEDTAVYYCARSDWYYGDAWGVPYYAFDYWGQGTLVTVSS
VL: DIQMTQSPSSLSASVGDRVTITCRASQSVGSALAWYQQKPGKAPKLLIYSASSLYSGVPSRFSGSRSGTDFTLTISSLQPEDFATYYCQQSWFLITFGQGTKVEIK
Take B6: the binding result in the assay with p47 (endogenous) is given as “binds”.

B7: scFv-A04 (antibody, V domains shown)
VH: QVQLVESGGGLVQPGGSLRLSCAASGFNVYSSSIHWVRQAPGKGLEWVASIYPSYGSTYYADSVKGRFTISADTSKNTAYLQMNSLRAEDTAVYYCARSYEWKYSYYRGGFDYWGQGTLVTVSS
VL: DIQMTQSPSSLSASVGDRVTITCRASQSVSSAVAWYQQKPGKAPKLLIYSASSLYSGVPSRFSGSRSGTDFTLTISSLQPEDFATYYCQQGYYLPVTFGQGTKVEIK
With B7, the binding result with p47-UBX domain [4] was “binds”.

B8: scFab-NLS E04 with C-terminal HA tag, expressed in cells (Fab, V domains shown)
VH: EVQLVESGGGLVQPGGSLRLSCAASGFNFSSYSIHWVRQAPGKGLEWVASISPYYGSTYYADSVKGRFTISADTSKNTAYLQMNSLRAEDTAVYYCARYKYYMSGRYTWALDYWGQGTLVTVSS
VL: DIQMTQSPSSLSASVGDRVTITCRASQSVSSAVAWYQQKPGKAPKLLIYSASSLYSGVPSRFSGSRSGTDFTLTISSLQPEDFATYYCQQEFFVPFTFGQGTKVEIK
Regarding B8, the binding result with p47 (endogenous) is “binds”.

B9: scFab-E04 with C-terminal HA tag, expressed in cells (Fab, V domains shown)
VH: EVQLVESGGGLVQPGGSLRLSCAASGFNFSSYSIHWVRQAPGKGLEWVASISPYYGSTYYADSVKGRFTISADTSKNTAYLQMNSLRAEDTAVYYCARYKYYMSGRYTWALDYWGQGTLVTVSS
VL: DIQMTQSPSSLSASVGDRVTITCRASQSVSSAVAWYQQKPGKAPKLLIYSASSLYSGVPSRFSGSRSGTDFTLTISSLQPEDFATYYCQQEFFVPFTFGQGTKVEIK
Turning to B9, the binding result with p47 (endogenous) was “binds”.

B10: scFv-E04 (scFv, V domains shown)
VH: QVQLVESGGGLVQPGGSLRLSCAASGFNFSSYSIHWVRQAPGKGLEWVASISPYYGSTYYADSVKGRFTISADTSKNTAYLQMNSLRAEDTAVYYCARYKYYMSGRYTWALDYWGQGTLVTVSS
VL: DIQMTQSPSSLSASVGDRVTITCRASQSVSSAVAWYQQKPGKAPKLLIYSASSLYSGVPSRFSGSRSGTDFTLTISSLQPEDFATYYCQQEFFVPFTFGQGTKVEIK
As for B10, in the assay with full-length p47, the binding result is “binds”. In addition, the Kd with p37-UBX domain is around 4 nM; with p47-UBX domain [1], around 7 nM.

B11: scFv-E04 with C-terminal HA tag, expressed in cells (scFv, V domains shown)
VH: QVQLVESGGGLVQPGGSLRLSCAASGFNFSSYSIHWVRQAPGKGLEWVASISPYYGSTYYADSVKGRFTISADTSKNTAYLQMNSLRAEDTAVYYCARYKYYMSGRYTWALDYWGQGTLVTVSS
VL: DIQMTQSPSSLSASVGDRVTITCRASQSVSSAVAWYQQKPGKAPKLLIYSASSLYSGVPSRFSGSRSGTDFTLTISSLQPEDFATYYCQQEFFVPFTFGQGTKVEIK
In the case of B11, in the assay with p47 (endogenous), the binding result is “binds”.

B12: scFv-G08 (scFv, V domains shown)
VH: QVQLVESGGGLVQPGGSLRLSCAASGFNISYSYIHWVRQAPGKGLEWVAYIYPYSGSTYYADSVKGRFTISADTSKNTAYLQMNSLRAEDTAVYYCARDPHWAMDYWGQGTLVTVSS
VL: DIQMTQSPSSLSASVGDRVTITCRASQSVGSALAWYQQKPGKAPKLLIYSASSLYSGVPSRFSGSRSGTDFTLTISSLQPEDFATYYCQQSFSSVPFTFGQGTKVEIK
With B12, the binding result with full-length p47 and with p47-UBX domain [3] was “binds” throughout.

These data come from PMC9335864 (Journal of the American Chemical Society, 2022).
